Target: recombinant RhoA (UniProt P61586)
Sequence (P61586 whole entry): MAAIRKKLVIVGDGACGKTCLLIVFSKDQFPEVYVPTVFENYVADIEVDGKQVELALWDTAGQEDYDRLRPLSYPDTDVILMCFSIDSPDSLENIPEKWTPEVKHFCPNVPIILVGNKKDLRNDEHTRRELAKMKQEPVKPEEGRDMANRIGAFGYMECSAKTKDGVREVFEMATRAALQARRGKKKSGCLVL

T7-tagged TRIO(G2699V)
RhoGEF activity (mant-GTP exchange assay): the TRIO(G2699V) mutant was more capable of activating Rho than TRIO(WT)
